Publication PMC8466755, “GPCR Pharmacological Profiling of Aaptamine from the Philippine Sponge Stylissa sp. Extends Its Therapeutic Potential for Noncommunicable Diseases” (Molecules, 2021)
Blank lines part the entries; values can stand above or below the molecule they belong to.

Columns and labels:
[1] = target: delta opioid receptor (δ-OR, OPRD1); design: method as in PMID 27744679; settings: calcium mobilization pathway; read-out: EC50 agonist, delta opioid receptor; cited from earlier work
[2] = target: T1, CXCR3 (Homo sapiens, UniProt P49682); experiment: PathHunter β-arrestin assay, positive allosteric modulation (PAM) mode; assay type: cell-based; settings: control agonist; read-out: EC50 of positive control ligand
T1 sequence (P49682 1-368): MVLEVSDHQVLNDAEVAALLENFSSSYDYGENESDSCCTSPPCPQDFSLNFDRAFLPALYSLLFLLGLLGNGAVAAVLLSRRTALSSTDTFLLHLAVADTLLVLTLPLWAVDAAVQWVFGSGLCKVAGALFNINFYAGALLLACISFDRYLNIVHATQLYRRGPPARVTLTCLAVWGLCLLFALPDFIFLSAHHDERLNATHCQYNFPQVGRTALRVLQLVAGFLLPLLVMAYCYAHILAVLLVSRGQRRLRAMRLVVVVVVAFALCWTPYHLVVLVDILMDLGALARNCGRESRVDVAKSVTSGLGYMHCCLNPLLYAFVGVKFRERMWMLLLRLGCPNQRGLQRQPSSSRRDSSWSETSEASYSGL
Description: (§1) Hit validation was performed by subjecting the aaptamine to an agonist, antagonist, and positive allosteric modulation (PAM) secondary screen utilizing thirteen GPCR biosensor assays (Arrestin) against the following targets: ADRA2A, ADRA2C, ADRB2, CCR1, CCR3, CXCR3, CXCR7, DRD2L, DRD2S, DRD4, HTR1E, OPRK1, and SSTR1. The assays were performed at 10-point concentrations using three-fold serial dilutions in duplicate. For all the assay formats, the final assay vehicle concentration was 1%.
(§2) For PAM assays, the cells were preincubated with the sample followed by agonist induction at the EC20 concentration. To the cells, 5 µL of 5X sample was added and incubated for 30 min at 37 °C or room temperature. Following the incubation period, 5 µL of the 6X EC20 agonist prepared in an assay buffer was added to the cells and incubated for 90 or 180 min at 37 °C or room temperature. The percent activity of aaptamine was calculated following this formula: % modulation = 100% × ((mean RLU of test sample − mean RLU of EC20 control)/(mean RLU of MAX control ligand − mean RLU of EC20 control)).

[3] = target: T2, CCR3 (Homo sapiens, UniProt P51677); experiment: as above; assay type: cell-based; settings: control agonist; read-out: EC50 of positive control ligand
T2 sequence (P51677 1-355): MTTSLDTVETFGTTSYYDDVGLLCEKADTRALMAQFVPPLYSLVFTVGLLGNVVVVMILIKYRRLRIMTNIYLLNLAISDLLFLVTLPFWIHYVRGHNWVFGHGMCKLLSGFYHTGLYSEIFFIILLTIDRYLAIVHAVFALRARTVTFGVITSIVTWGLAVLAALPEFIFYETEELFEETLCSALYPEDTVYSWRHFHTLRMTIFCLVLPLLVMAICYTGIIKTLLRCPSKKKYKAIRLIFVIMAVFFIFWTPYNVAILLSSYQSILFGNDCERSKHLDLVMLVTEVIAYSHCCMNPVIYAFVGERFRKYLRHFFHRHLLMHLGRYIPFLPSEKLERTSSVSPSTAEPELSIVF
Description: as §1, §2

[4] = target: T3, CCR1 (Homo sapiens, UniProt P32246); experiment: PathHunter β-arrestin assay, agonist mode; assay type: cell-based; settings: dose-response, agonist mode
T3 sequence (P32246 1-355): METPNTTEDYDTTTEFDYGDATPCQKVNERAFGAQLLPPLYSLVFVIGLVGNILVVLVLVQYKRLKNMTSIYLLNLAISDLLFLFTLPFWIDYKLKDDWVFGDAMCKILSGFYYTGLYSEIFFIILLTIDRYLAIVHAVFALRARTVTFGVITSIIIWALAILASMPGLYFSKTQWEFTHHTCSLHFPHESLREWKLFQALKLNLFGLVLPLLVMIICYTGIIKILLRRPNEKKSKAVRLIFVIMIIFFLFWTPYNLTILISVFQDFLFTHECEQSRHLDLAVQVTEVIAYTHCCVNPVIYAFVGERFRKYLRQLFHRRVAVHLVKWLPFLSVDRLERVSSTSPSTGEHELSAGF
Description: Aaptamine (20 µM) was profiled in gpcrMAX panel biosensor assays (in agonist and antagonist modes) against a panel of 168 GPCRs. The assay was performed by DiscoverX Corporation (Fremont, CA) using PathHunter β -arrestin enzyme fragment complementation (EFC) technology, in a similar way to that described elsewhere. The PathHunter cell lines were taken from freezer stocks according to standard procedures. A total of 20 µL of cells were seeded into white 384-well plates and incubated at 37 °C for the appropriate time prior to testing.
For agonist determination, aaptamine was incubated with PathHunter cell lines to induce a response. To increase the concentration, intermediate dilution from 20 µM of aaptamine was performed to generate a 5X sample in an assay buffer. Then, 5 µL of 5X sample was added to the plate with PathHunter cells and incubated for 90 or 180 min at 37 °C or room temperature. The percentage activity of aaptamine was calculated following this formula: % activity = 100% × (mean RLU of test sample − mean RLU of vehicle control)/(mean MAX control ligand − mean RLU of vehicle control).
as §1

Molecule: COc1cc2ccnc3c2c(c1O)NC=C3 [9-demethyl aaptamine]
- EC50 [1]: 4100 nM

Molecule: COC1=Cc2ccnc3ccnc(c23)C1=O [demethyl(oxy)-aaptamine]
- EC50 [1]: 2300 nM

- EC50 [2]: 6.7 nM
Molecule: CXCL11: ligand used as positive control for CXCR3

- EC50 [3]: 3 nM
Molecule: CCL3: ligand used as positive control for CCR3

- EC50 [4]: 26 nM
Molecule: CCL13: ligand used as positive control for CCR1
